Residue numbers refer to the chain shown, from its start. Names and notes keep the numbering of the source.
T1: A. fulgidus RbcL2 (Archaeoglobus fulgidus, UniProt O28635)
T1 construct: gene rbcL; recombinant in E. coli BL-21(DE3) from pET11a, untagged, purified anaerobically to homogeneity; homodimer
T1 sequence (O28635 1-441): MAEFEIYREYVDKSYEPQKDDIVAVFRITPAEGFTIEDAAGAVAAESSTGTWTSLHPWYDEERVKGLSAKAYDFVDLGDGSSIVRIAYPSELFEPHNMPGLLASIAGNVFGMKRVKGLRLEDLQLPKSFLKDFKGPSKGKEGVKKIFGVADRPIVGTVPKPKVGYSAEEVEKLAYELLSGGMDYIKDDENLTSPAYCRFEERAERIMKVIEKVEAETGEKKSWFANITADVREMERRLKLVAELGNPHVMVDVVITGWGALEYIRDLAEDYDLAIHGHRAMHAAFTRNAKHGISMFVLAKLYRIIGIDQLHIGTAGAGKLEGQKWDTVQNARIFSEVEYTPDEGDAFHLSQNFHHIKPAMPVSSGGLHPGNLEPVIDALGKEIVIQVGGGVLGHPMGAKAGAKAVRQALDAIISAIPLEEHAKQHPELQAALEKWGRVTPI

B1: A. fulgidus RbcL2 (Archaeoglobus fulgidus DSM 4304; S363I) (protein)
chain: T1 sequence (O28635 1-441) with S363I
notes: recombinant in E. coli BL-21(DE3) from pET11a, untagged, purified anaerobically to homogeneity; homodimer
B2: A. fulgidus RbcL2 (Archaeoglobus fulgidus DSM 4304; M295D/S363I) (protein)
chain: T1 sequence (O28635 1-441) with M295D, S363I
notes: as for B1
B3: A. fulgidus RbcL2 (Archaeoglobus fulgidus DSM 4304; S363V) (protein)
chain: T1 sequence (O28635 1-441) with S363V
notes: as for B1
B4: A. fulgidus RbcL2 (Archaeoglobus fulgidus DSM 4304; M295D/S363V) (protein)
chain: T1 sequence (O28635 1-441) with M295D, S363V
notes: as for B1
B5: T. kodakaraensis RbcL (Thermococcus kodakarensis KOD1) (protein)
chain: MVEKFDTIYDYYVDKGYEPSKKRDIIAVFRVTPAEGYTIEQAAGAVAAESSTGTWTTLYPWYEQERWADLSAKAYDFHDMGDGSWIVRIAYPFHAFEEANLPGLLASIAGNIFGMKRVKGLRLEDLYFPEKLIREFDGPAFGIEGVRKMLEIKDRPIYGVVPKPKVGYSPEEFEKLAYDLLSNGADYMKDDENLTSPWYNRFEERAEIMAKIIDKVENETGEKKTWFANITADLLEMEQRLEVLADLGLKHAMVDVVITGWGALRYIRDLAADYGLAIHGHRAMHAAFTRNPYHGISMFVLAKLYRLIGIDQLHVGTAGAGKLEGGKWDVIQNARILRESHYKPDENDVFHLEQKFYSIKAAFPTSSGGLHPGNIQPVIEALGTDIVLQLGGGTLGHPDGPAAGARAVRQAIDAIMQGIPLDEYAKTHKELARALEKWGHVTPV
notes: recombinant in E. coli BL-21(DE3) from pET11a, untagged, purified anaerobically to homogeneity; reported decamer

How the values were obtained:
[1] = target: T1, A. fulgidus RbcL2; assay: radiometric […]-bicarbonate carboxylase assay; assay type: biochemical; conditions: 83°C, pH 8.3, Mg2+, strictly anaerobic; value previously reported by same laboratory (ref 17), run in parallel; read-out: KRuBP ^a /; cited from earlier work
[2] = target: T2, A. fulgidus RbcL2 (Archaeoglobus fulgidus, UniProt O28635, M295D); assay: radiometric […]-bicarbonate carboxylase assay; assay type: biochemical; conditions: 83°C, pH 8.3, Mg2+, strictly anaerobic; value previously reported by same laboratory (ref 17), run in parallel; read-out: KRuBP ^a /; cited from earlier work
T2 construct: gene rbcL; recombinant in E. coli BL-21(DE3) from pET11a, untagged, purified anaerobically to homogeneity; homodimer

[3] = substrate: O=C(COP(=O)(O)O)[C@H](O)[C@H](O)COP(=O)(O)O; assay: purified protein; assay type: biochemical, Archaeoglobus fulgidus; conditions: 83°C, pH 8.3, Mg2+, strictly anaerobic
[4] = substrate: O=C(COP(=O)(O)O)[C@H](O)[C@H](O)COP(=O)(O)O; assay: purified protein; assay type: biochemical, Thermococcus kodakarensis; conditions: 83°C, pH 8.3, Mg2+, strictly anaerobic

T2 sequence (O28635 whole entry M295D): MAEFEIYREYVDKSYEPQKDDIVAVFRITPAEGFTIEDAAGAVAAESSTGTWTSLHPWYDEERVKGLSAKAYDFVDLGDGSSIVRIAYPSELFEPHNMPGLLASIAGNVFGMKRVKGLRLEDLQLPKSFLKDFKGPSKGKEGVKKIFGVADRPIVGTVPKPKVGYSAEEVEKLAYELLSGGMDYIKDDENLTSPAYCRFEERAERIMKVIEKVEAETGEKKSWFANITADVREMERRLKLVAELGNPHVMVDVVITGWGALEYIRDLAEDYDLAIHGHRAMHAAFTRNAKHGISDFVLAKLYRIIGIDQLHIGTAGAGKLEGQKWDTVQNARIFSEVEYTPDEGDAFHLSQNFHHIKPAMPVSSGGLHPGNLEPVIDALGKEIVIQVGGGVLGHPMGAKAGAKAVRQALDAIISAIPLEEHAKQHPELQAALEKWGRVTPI

Row | Molecule | Km ([3]; kcat determined at 4–6 x KRuBP) | kcat ([3]; kcat determined at 4–6 x KRuBP) | also measured
1 | O=C(COP(=O)(O)O)[C@H](O)[C@H](O)COP(=O)(O)O [RuBP] | – | – | Km [1]: 20 ± 5 µM; Km [2]: 21 ± 3 µM
2 | B1 | – | – | Km [3]: 570 ± 94 µM; kcat [3]: 9.5 s⁻¹
3 | B2 | 1646 ± 310 µM | 0.7 s⁻¹ | –
4 | B3 | 118 ± 6 µM | 12.4 s⁻¹ | –
5 | B4 | 1381 ± 88 µM | 4.3 s⁻¹ | –
6 | B5 | – | – | Km [4]: 14 ± 2 µM; kcat [4]: 16.6 s⁻¹

— article PMC4575112, “Serine 363 of a Hydrophobic Region of Archaeal Ribulose 1,5-Bisphosphate Carboxylase/Oxygenase from Archaeoglobus fulgidus and Thermococcus kodakaraensis Affects CO2/O2 Substrate Specificity and Oxygen Sensitivity” (PLoS ONE, 2015)
